In data set [1] the test system is Nc1ccn([C@H]2C[C@H](O)[C@@H](COP(=O)(O)O)O2)c(=O)n1. The data set is described as follows: purified protein. The conditions noted are these: pH 7.5; 37.0 °C.
The subject of data set [2] is Nc1ccn([C@@H]2O[C@H](COP(=O)(O)O)[C@@H](O)[C@H]2O)c(=O)n1. Nature of the data set: purified protein. The settings on record: pH 7.5; 37.0 °C.
Data set [3] concerns the molecule itself. The data set is described as follows: crystal structure.

The values below come from publication PMC3750073 (Biochemistry, 2013).

Broadly, the kcat/Km is the turnover number divided by the Michaelis constant. For the molecule (Streptomyces rimofaciens), in data set [1], the Km is recorded as 5.4 (0.8) mM and the kcat/Km was determined as 1.1 M⁻¹ s⁻¹. For the same molecule, in data set [2], the Km is listed as 3.8 (0.5) mM and the kcat/Km was found to be 5.2 M⁻¹ s⁻¹.

B1: SeMet MilB (selenomethionine-containing MilB, CMP hydrolase of Streptomyces rimofaciens ZJU5119) (enzyme, UniProt B4Y381 1-170, looked up)
chain: MTTTPKPRTAPAVGSVFLGGPFRQLVDPRTGVMSSGDQNVFSRLIEHFESRGTTVYNAHRREAWGAEFLSPAEATRLDHDEIKAADVFVAFPGVPASPGTHVEIGWASGMGKPMVLLLERDEDYAFLVTGLESQANVEILRFSGTEEIVERLDGAVARVLGRAGEPTVIG
modifications: selenomethionine (SeMet-containing protein)
As usually defined, the stoichiometry N is the number of molecules, sites or subunits per partner or assembly. For B1, the “stoichiometry N” value in data set [3] came to 2.
